# Measurements reported in patent US20210087291A1 (Hoffmann-La Roche, published 2021).
# Residue numbers refer to the chain shown, from its start. Like-named read-outs stand apart in the source and are kept apart here.
# B1: Mov19 IgG (antibody, V domains shown)
# VH: QVQLQQSGAELVKPGASVKISCKASGYSFTGYFMNWVKQSHGKSLEWIGRIHPYDGDTFYNQNFKDKATLTVDKSSNTAHMELLSLTSEDFAVYYCTRYDGSRAMDYWGQGTTVTVSS
# VL: DIELTQSPASLAVSLGQRAIISCKASQSVSFAGTSLMHWYHQKPGQQPKLLIYRASNLEAGVPTRFSGSGSKTDFTLNIHPVEEEDAATYYCQQSREYPYTFGGGTKLEIK
# B2: 19H3 IgG (antibody, V domains shown)
# VH: QVQLVQSGAEVKKPGASVKVSCKASGYTFTSYYMHWVRQAPGQGLEWMGIINPSGGSTSYAQKFQGRVTMTRDTSTSTVYMELSSLRSEDTAVYYCARTGWSRWGYMDYWGQGTLVTVSS
# VL: QAVVTQEPSLTVSPGGTVTLTCGSSTGAVTTSNYANWVQEKPGQAFRGLIGGTNKRAPGTPARFSGSLLGGKAALTLSGAQPEDEAEYYCALWYSNLWVFGGGTKLTVL
# notes: human IgG1
# B3: 19A4 IgG (antibody, V domains shown)
# VH: B2 VH with T99G, S102I, G105E, Y106H, M107F
# VL: B2 VL
# notes: human IgG1
# B4: 20H7 IgG (antibody, V domains shown)
# VH: B2 VH with T99V, S102Y
# VL: B2 VL
# notes: human IgG1
# B5: 36F2 IgG (antibody, V domains shown)
# VH: QVQLVQSGAEVKKPGASVKVSCKASGYTFTSYYMHWVRQAPGQGLEWMGIINPSGGSTSYAQKFQGRVTMTHDTSTSTVYMELSSLRSEDTAVYYCARSFFTGFHLDYWGQGTLVTVSS
# VL: EIVLTQSPGTLSLSPGERATLSCRASQSVSSSYLAWYQQKPGQAPRLLIYGASSRATGIPDRFSGSGSGTDFTLTISRLEPEDFAVYYCQQYTNEHYYTFGQGTKVEIK
# notes: human IgG1
# Key:
# [1] = target: T1, cynomolgus FolR1 ECD-AcTev-Fcknob-Avi tag + Fc hole, biotinylated monomeric Fc fusion (cynomolgus, UniProt P0DOX5 223-449 = IgG part); assay: SPR, apparent KD, bivalent binding (avidity)
# T1 construct: also called cyFolR1; cyno FolR1-Fc
# Method: (§1) Binding of FolR1 binders as IgG or in the T-cell bispecific format to different recombinant folate receptors (human FolR1, 2 and 3, murine FolR1 and cynomolgus FolR1; all as Fc fusions) was assessed by surface plasmon resonance (SPR).
# (§2) Recombinant biotinylated monomeric Fc fusions of human, cynomolgus and murine Folate Receptor 1 (FolR1-Fc) were directly coupled on a SA chip using the standard coupling instruction (Biacore, Freiburg/Germany). The immobilization level was about 300-400 RU. The anti-FolR1 IgGs or T cell bispecifics were passed at a concentration range from 2.1 to 500 nM with a flow of 30 μL/minutes through the flow cells over 180 seconds. The dissociation was monitored for 600 seconds. Bulk refractive index differences were corrected for by subtracting the response obtained on reference flow cell immobilized with recombinant biotinylated IL2 receptor Fc fusion. […] The binding curves resulting from the bivalent binding of the IgGs or T cell bispecifics were approximated to a 1:1 Langmuir binding and fitted with that model (which is not correct, but gives an idea of the avidity). The apparent avidity constants for the interactions were derived from the rate constants of the fitting using the Bia Evaluation software (GE Healthcare).
# [2] = target: T2, human FolR1 ECD-AcTev-Fcknob-Avi tag + Fc hole, biotinylated monomeric Fc fusion (human, UniProt P0DOX5 223-449 = IgG part); assay: SPR, apparent KD, bivalent binding (avidity)
# T2 construct: also called huFolR1; huFolR1-Fc
# Method: as §1, §2
# human FolR1 on cells [3] = target: T3, human FolR1 on cells (human, UniProt P15328 25-234); assay: flow cytometry on HeLa cells (human FolR1), fluorescently labeled anti-human secondary antibody
# T3 construct: also called FolR1 on HeLa, SKOV3, HT-29 tumor cells; HEK cells transfected with human FolR1
# T3 sequence (P15328 25-234 limits assumed): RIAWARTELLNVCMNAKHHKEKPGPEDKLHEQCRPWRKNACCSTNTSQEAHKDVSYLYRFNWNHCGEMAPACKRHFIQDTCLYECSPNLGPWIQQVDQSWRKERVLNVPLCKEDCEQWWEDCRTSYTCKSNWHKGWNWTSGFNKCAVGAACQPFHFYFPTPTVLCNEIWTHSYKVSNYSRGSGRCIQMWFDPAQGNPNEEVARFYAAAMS
# Method: (§3) Binding of newly generated FolR1 binders to FolR1 expressed on HeLa cells were determined by flow cytometry. Bound antibodies were detected with a fluorescently labeled anti-human secondary antibody.
# (§4) The identified binders were converted into a human IgG1 format and binding to FolR1 high expressing HeLa cells was addressed.
# [4] = target: T1, cynomolgus FolR1 ECD-AcTev-Fcknob-Avi …; assay: SPR, bivalent binding (avidity), antigen on SA chip
# Method: as §1, §2
# [5] = target: T2, human FolR1 ECD-AcTev-Fcknob-Avi tag + …; assay: as above
# Method: as §1, §2
# [6] = target: T1, cynomolgus FolR1 ECD-AcTev-Fcknob-Avi …; assay: SPR, monovalent, antibody captured by anti-Fab
# Method: as §1
# (§5) For affinity measurement, direct coupling of around 6000-7000 resonance units (RU) of the anti-human Fab specific antibody (Fab capture kit, GE Healthcare) was performed on a CM5 chip at pH5.0 using the standard amine coupling kit (GE Healthcare). Anti-FolR1 IgGs or T cell bispecifics were captured at 20 nM with a flow rate of 10 μl/min for 20 or 40 sec, the reference flow cell was left without capture. […] The dissociation phase was monitored for 240 sand triggered by switching from the sample solution to HBS-EP. The chip surface was regenerated after every cycle using a double injection of 60 sec 10 mM Glycine-HCl pH 2.1 or pH1.5. Bulk refractive index differences were corrected for by subtracting the response obtained on the reference flow cell 1. The affinity constants for the interactions were derived from the rate constants by fitting to a 1:1 Langmuir binding using the Bia Evaluation software (GE Healthcare).
# [7] = target: T2, human FolR1 ECD-AcTev-Fcknob-Avi tag + …; assay: SPR, monovalent, antibody captured by anti-Fab
# Method: as §1, §5
# human FolR1 on cells [8] = target: T3, human FolR1 on cells; assay: flow cytometry on HeLa cells (human FolR1), fluorescently labeled anti-human secondary antibody; remark: listed apart in the source
# Method: as §3, §4
# [9] = target: T4, murine FolR1 ECD-AcTev-Fcknob-Avitag + Fc hole, biotinylated monomeric Fc fusion (murine, UniProt P0DOX5 223-449 = IgG part); assay: SPR, apparent KD, bivalent binding, 2.3 uM folate in running buffer
# T4 construct: also called muFolR1; murine FolR1-Fc
# Method: as §1, §2
# [10] = target: T5, human FolR3 ECD-AcTev-Fcknob-Avi tag + Fc hole, biotinylated monomeric Fc fusion (human, UniProt P0DOX5 223-449 = IgG part); assay: SPR, IgG single injection
# T5 construct: also called huFolR3; FolR3-Fc
# [11] = target: T6, human FolR2 ECD-AcTev-Fcknob-Avi tag + Fc hole, biotinylated monomeric Fc fusion (human, UniProt P0DOX5 223-449 = IgG part); assay: SPR, IgG single injection
# T6 construct: also called huFolR2; FolR2-Fc
# [12] = target: T1, cynomolgus FolR1 ECD-AcTev-Fcknob-Avi …; assay: SPR, IgG single injection
# [13] = target: T2, human FolR1 ECD-AcTev-Fcknob-Avi tag + …; assay: SPR, IgG single injection
# [14] = target: T7, human FolR2 on transiently transfected HEK cells (human, UniProt P14207 17-230); assay: flow cytometry on HEK cells transiently transfected with human FolR2, anti-human secondary antibody; concentration not given
# T7 sequence (P14207 17-230 limits assumed): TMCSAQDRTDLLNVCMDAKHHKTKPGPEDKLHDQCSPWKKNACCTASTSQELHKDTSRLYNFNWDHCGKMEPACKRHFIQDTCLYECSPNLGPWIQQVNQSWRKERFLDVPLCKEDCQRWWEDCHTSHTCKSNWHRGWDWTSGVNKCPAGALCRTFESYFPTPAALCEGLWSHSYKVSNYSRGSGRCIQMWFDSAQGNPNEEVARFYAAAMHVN
# human FolR1 on cells [15] = target: T3, human FolR1 on cells; assay: flow cytometry on HEK cells transiently transfected with human FolR1, anti-human secondary antibody; concentration not given
# [16] = target: T4, murine FolR1 ECD-AcTev-Fcknob-Avitag + …; assay: SPR, 500 nM IgG single injection
# [17] = target: T4, murine FolR1 ECD-AcTev-Fcknob-Avitag + …; assay: SPR, apparent KD, bivalent binding (avidity)
# Method: as §1, §2
# human FolR1 on cells [18] = target: T3, human FolR1 on cells; assay: flow cytometry on HeLa cells (human FolR1), fluorescently labeled anti-human secondary antibody; remark: listed apart in the source
# Method: as §3, §4
# [19] = target: T4, murine FolR1 ECD-AcTev-Fcknob-Avitag + …; assay: SPR, bivalent binding (avidity), antigen on SA chip
# Method: as §1, §2
# [20] = target: T7, human FolR2 on transiently transfected …; assay: flow cytometry on HEK cells transiently transfected with human FolR2, anti-human secondary antibody; concentration not given; remark: listed apart in the source
# [21] = target: T8, cynomolgus FolR1 on transiently transfected HEK cells (cynomolgus, UniProt P15328 25-234 (human entry)); assay: flow cytometry on HEK cells transiently transfected with cyno FolR1, anti-human secondary antibody
# T8 construct: also called cyno FolR1; cyFoLR1
# T8 sequence (P15328 other isoform, or with tags, fused parts or gaps limits assumed): as the sequence (P15328 25-234 limits assumed) above, with I2T, W4R, R37K, Q117R, A146P, H171Y counted along it
# From the text: Cross-reactivity of the FolR1 antibodies to cyno FolR1 was addressed on HEK cells transiently transfected with cyFolR1 by flow cytometry. The antibodies were detected with a fluorescently labeled anti-human secondary antibody.
# In parallel cross-reactivity of the FolR1 clones to cyno FolR1 was addressed by performing binding studies to HEK cells transiently transfected with cyno FolR1.
binder,measurement,setting,value
B1,Kd,[1],0.108 nM
same,Kd,[2],0.14 nM
same,EC50 (read off the curve),human FolR1 on cells [3],~1 µg/mL
same,koff,[4],0.000139 s⁻¹
same,kon,[4],1.29e+06 M⁻¹ s⁻¹
same,koff,[5],0.000121 s⁻¹
same,kon,[5],861000 M⁻¹ s⁻¹
same,Kd,[6],0.65 nM
same,koff,[6],0.000193 s⁻¹
same,kon,[6],297000 M⁻¹ s⁻¹
same,Kd,[7],0.55 nM
same,koff,[7],0.000159 s⁻¹
same,kon,[7],289000 M⁻¹ s⁻¹
B2,binding result,human FolR1 on cells [8],binds
same,Kd,[9],1.55 nM
same,binding result,[10],no binding (tested: 500 nM)
same,binding result,[11],no binding (tested: 500 nM)
same,binding result,[12],no binding (tested: 500 nM)
same,binding result,[13],no binding (tested: 500 nM)
B3,binding result,[14],binds
same,binding result,human FolR1 on cells [15],binds
B4,binding result,[16],binds
same,binding result,[10],no binding (tested: 500 nM)
same,binding result,[11],no binding (tested: 500 nM)
B5,Kd,[1],5.31 nM
same,Kd,[17],1.63 nM
same,Kd,[2],5.74 nM
same,binding result,human FolR1 on cells [18],binds
same,koff,[4],0.016 s⁻¹
same,kon,[4],3.02e+06 M⁻¹ s⁻¹
same,koff,[19],0.000603 s⁻¹
same,kon,[19],370000 M⁻¹ s⁻¹
same,koff,[5],0.0151 s⁻¹
same,kon,[5],2.62e+06 M⁻¹ s⁻¹
same,binding result,[20],no binding
same,binding result,[21],binds
same,binding result,[10],no binding (tested: 500 nM)
same,binding result,[11],no binding (tested: 500 nM)
